The results in this text go back to US20090305255.

The target of series [1] is SAKI (Substrate of AIM-1 kinase).
Sequence of SAKI (Substrate of AIM-1 kinase) (chain, as listed by the source): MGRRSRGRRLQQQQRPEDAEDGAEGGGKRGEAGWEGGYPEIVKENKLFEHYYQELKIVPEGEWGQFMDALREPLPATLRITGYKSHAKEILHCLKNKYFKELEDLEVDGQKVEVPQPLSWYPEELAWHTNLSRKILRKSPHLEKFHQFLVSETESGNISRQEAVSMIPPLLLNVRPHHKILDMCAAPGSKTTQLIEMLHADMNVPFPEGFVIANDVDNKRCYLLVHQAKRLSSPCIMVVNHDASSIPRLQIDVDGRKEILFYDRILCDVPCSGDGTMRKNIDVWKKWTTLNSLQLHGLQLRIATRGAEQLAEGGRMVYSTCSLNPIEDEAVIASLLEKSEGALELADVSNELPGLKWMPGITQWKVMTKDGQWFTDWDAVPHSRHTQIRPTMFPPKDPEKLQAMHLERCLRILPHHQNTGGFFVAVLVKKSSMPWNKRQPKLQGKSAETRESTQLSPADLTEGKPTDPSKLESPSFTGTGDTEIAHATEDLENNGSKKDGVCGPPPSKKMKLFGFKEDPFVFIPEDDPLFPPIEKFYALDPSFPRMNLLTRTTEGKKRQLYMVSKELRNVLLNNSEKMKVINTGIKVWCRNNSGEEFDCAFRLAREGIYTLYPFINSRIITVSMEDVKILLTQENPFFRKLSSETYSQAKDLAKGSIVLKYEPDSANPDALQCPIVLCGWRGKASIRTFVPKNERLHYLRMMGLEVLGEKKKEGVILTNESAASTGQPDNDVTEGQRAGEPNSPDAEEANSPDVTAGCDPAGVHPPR

B1: Aik (protein)
chain: MDRSKENCISGPVKATAPVGGPKRVLVTQQFPCQNPLPVNSGQAQRVLCPSNSSQRIPLQAQKLVSSHKPVQNQKQKQLQATSVPHPVSRPLNNTQKSKQPLPSAPENNPEEELASKQKNEESKKRQWALEDFEIGRPLGKGKFGNVYLAREKQSKFILALKVLFKAQLEKAGVEHQLRREVEIQSHLRHPNILRLYGYFHDATRVYLILEYAPLGTVYRELQKLSKFDEQRTATYITELANALSYCHSKRVIHRDIKPENLLLGSAGELKIADFGWSVHAPSSRRTTLCGTLDYLPPEMIEGRMHDEKVDLWSLGVLCYEFLVGKPPFEANTYQETYKRISRVEFTFPDFVTEGARDLISRLLKHNPSQRPMLREVLEHPWITANSSKPSNCQNKESASKQS
Consider B1, for which the in-vitro phosphorylation experiments result in the series with H3 histone, P68431 is “both AIM-1 and Aik phosphorylated H3 histone”.

B2: AIM-1 (Aurora and Ipl1-like midbody-associated protein) (protein)
chain: MAQKENSYPWPYGRQTAPSGLSTLPQRVLRKEPVTPSALVLMSRSNVQPTAAPGQKVMENSSGTPDILTRHFTIDDFEIGRPLGKGKFGNVYLAREKKSHFIVALKVLFKSQIEKEGVEHQLRREIEIQAHLHHPNILRLYNYFYDRRRIYLILEYAPRGELYKELQKSCTFDEQRTATIMEELADALMYCHGKKVIHRDIKPENLLLGLKGELKIADFGWSVHAPSLRRKTMCGTLDYLPPEMIEGRMHNEKVDLWCIGVLCYELLVGNPPFESASHNETYRRIVKVDLKFPASVPMGAQDLISKLLRHNPSERLPLAQVSAHPWVRANSRRVLPPSALQSVA
In the case of B2, the in-vitro phosphorylation experiments entry in the series with H3 histone, P68431 was “both AIM-1 and Aik phosphorylated H3 histone”. In addition, the “immunoblotting with the anti-H3 histone Ser-10 phosphorylation site antibody after expression of the AIM-1 kinase-deficient mutant protein in HeLa” value in series [1] is on record as “there was a protein that is seemingly phosphorylated by AIM-1 in the region close to 100 kDa”.
